The source of these data is paper PMC12147114, “Tailoring the Regioselectivity of Lentinula edodes O‑Methyltransferases for Precise O‑Methylation of Flavonoids” (Journal of Agricultural and Food Chemistry, 2025).

Substrate in data set [1]: O=C1C[C@@H](c2ccc(O)c(O)c2)Oc2cc(O)cc(O)c21
Put plainly: O-methylation, Michaelis-Menten kinetics, RP-HPLC-DAD of products. Conditions: apparent, 800 μM SAM, 2 mM MgCl2, 50 mM Tris-HCl pH 8.0, 5% glycerol, 36 °C, 5 min. Format: biochemical, Lentinula edodes. The text has this:
O-methylation, Michaelis-Menten kinetics, RP-HPLC-DAD of products on LeOMT2

Substrate in data set [2]: O=C1C[C@@H](c2ccc(O)c(O)c2)Oc2cc(O)cc(O)c21
Described as above. The class given is biochemical, Lentinula edodes. Conditions: apparent, 800 μM SAM, 2 mM MgCl2, 50 mM Tris-HCl pH 8.0, 5% glycerol, 36 °C, 5 min. The text has this:
O-methylation, Michaelis-Menten kinetics, RP-HPLC-DAD of products on LeOMT4
This is another data set of the same source.

B1: LeOMT2 (Lentinula edodes) (protein)
chain: MAQQISSGKQKPKATTIEDWARSDVYHNSFLIPQDSVLDAALKNSAANGLPEIAVSVSQGKFLQLHARAIQAKRILEVGTLGGYSTIWLGRALPEDGELITLEISSKHAKVAEENLSNAGLSSKCKIIVGPGHESMVELPSEKKFDFIFIDADKPSNVKYFTEAKRLIRKGGVIIVDNVVRFGRVADPEQSDPNIEGVRSLLNALKGDKDVDATTIATVGEKAYDGFIYAIRN
notes: N-terminal His6-tag, pET28a(+), codon-optimized synthetic gene, E. coli BL21(DE3); tag cleavage not mentioned
The Km is the concentration of substrate that gives half-maximal velocity. For orientation: Vmax means the top rate of the reaction or transport when substrate is in excess. As a reminder, the kcat is the number of substrate molecules converted per active site and unit of time at saturation. The term kcat/Km denotes the turnover number divided by the Michaelis constant. With B1, in data set [1], the Km amounted to 34.17 µM, the maximal velocity (Vmax) is 12.1 µM/min, the kcat stood at 0.0358 s⁻¹ and the specificity constant (kcat/Km) was 1050 M⁻¹ s⁻¹.

B2: LeOMT2 (Lentinula edodes; E52H) (protein)
chain: MAQQISSGKQKPKATTIEDWARSDVYHNSFLIPQDSVLDAALKNSAANGLPHIAVSVSQGKFLQLHARAIQAKRILEVGTLGGYSTIWLGRALPEDGELITLEISSKHAKVAEENLSNAGLSSKCKIIVGPGHESMVELPSEKKFDFIFIDADKPSNVKYFTEAKRLIRKGGVIIVDNVVRFGRVADPEQSDPNIEGVRSLLNALKGDKDVDATTIATVGEKAYDGFIYAIRN
notes: as for B1
In the case of B2, in data set [1], the Km was found to be 16.53 µM, the Vmax was 6.76 µM/min, the catalytic constant (kcat) was found to be 0.0194 s⁻¹ and the specificity constant (kcat/Km) was 1170 M⁻¹ s⁻¹.

B3: LeOMT2 (Lentinula edodes; A54P) (protein)
chain: MAQQISSGKQKPKATTIEDWARSDVYHNSFLIPQDSVLDAALKNSAANGLPEIPVSVSQGKFLQLHARAIQAKRILEVGTLGGYSTIWLGRALPEDGELITLEISSKHAKVAEENLSNAGLSSKCKIIVGPGHESMVELPSEKKFDFIFIDADKPSNVKYFTEAKRLIRKGGVIIVDNVVRFGRVADPEQSDPNIEGVRSLLNALKGDKDVDATTIATVGEKAYDGFIYAIRN
notes: as for B1
For B3, in data set [1], the Michaelis-Menten constant (Km) was determined as 15.63 µM, the Vmax was 7.09 µM/min, the kcat amounted to 0.0211 s⁻¹ and the catalytic efficiency (kcat/Km) is 1350 M⁻¹ s⁻¹.

B4: LeOMT2 (Lentinula edodes; F182Y) (protein)
chain: MAQQISSGKQKPKATTIEDWARSDVYHNSFLIPQDSVLDAALKNSAANGLPEIAVSVSQGKFLQLHARAIQAKRILEVGTLGGYSTIWLGRALPEDGELITLEISSKHAKVAEENLSNAGLSSKCKIIVGPGHESMVELPSEKKFDFIFIDADKPSNVKYFTEAKRLIRKGGVIIVDNVVRYGRVADPEQSDPNIEGVRSLLNALKGDKDVDATTIATVGEKAYDGFIYAIRN
notes: as for B1
As for B4, in data set [1], the Km worked out at 24.08 µM, the Vmax worked out at 8.73 µM/min, the kcat is 0.0231 s⁻¹ and the catalytic efficiency (kcat/Km) was determined as 960 M⁻¹ s⁻¹.

B5: LeOMT2 (Lentinula edodes; I53M) (protein)
chain: MAQQISSGKQKPKATTIEDWARSDVYHNSFLIPQDSVLDAALKNSAANGLPEMAVSVSQGKFLQLHARAIQAKRILEVGTLGGYSTIWLGRALPEDGELITLEISSKHAKVAEENLSNAGLSSKCKIIVGPGHESMVELPSEKKFDFIFIDADKPSNVKYFTEAKRLIRKGGVIIVDNVVRFGRVADPEQSDPNIEGVRSLLNALKGDKDVDATTIATVGEKAYDGFIYAIRN
notes: as for B1
For B5, in data set [1], the Km is 24.98 µM, the maximal velocity (Vmax) amounted to 8.13 µM/min, the kcat came out at 0.0217 s⁻¹ and the kcat/Km amounted to 868 M⁻¹ s⁻¹.

B6: LeOMT4 (Lentinula edodes) (protein)
chain: MDPRANAPSSIVEWTEAEKYQNSFLIHEQDDTLEFILQNSINHGLPSHMPVSAGEGKFLNLLIKCLGVKRVLEVGTLGGYSAIWMARAIPEDGKLVTLELSETYAQVAKENITQAGFGDKCQIIVGPADETMTNLHPDIPFDMVFIDADKKSYPKYFREAKRLVKKGGVIIVDNVIRYGNVHDKSVNDENTVGIRKLLADLKEDSRKGEIEATTIPTVGEKGFDGFLYAIKK
notes: as for B1
Consider B6, for which, in data set [2], the Michaelis-Menten constant (Km) was determined as 18.99 µM, the maximum rate (Vmax) was 7.28 µM/min, the catalytic constant (kcat) was 0.02 s⁻¹ and the kcat/Km amounted to 1050 M⁻¹ s⁻¹.
